Reference: patent US20050054026A1

Biological target: 9-fluorenylmethyloxycarbonyl (Fmoc)-glycyl-prolyl-glutamyl-glycyl-isoleucyl-alanyl-glycyl-tryptophanyl-glycine (Gly-Pro-Gln-Gly-Ile-Ala-Gly-Trp-Gly) (Artificial Sequence)
Conditions: scale: fold

Compared with carboxypeptidase A (enzyme), collagenase (enzyme) is lower in degradation rate of Fmoc-… per unit weight of enzyme and unit time (first 15 minutes, RP-HPLC): 38.8 for the first, 26.9 for the second.

aminopeptidase-1 (enzyme) gave a degradation rate of Fmoc-… per unit weight of enzyme and unit time (first 15 minutes, RP-HPLC) of 14.2.
